{
  "source": "patent US20190023770A1",
  "about": "(Genentech, published 2019)",
  "binders": {"B1": {"name": "monoclonal antibody 36.89 (antibody, V domains shown)", "VH": "QVQLVQSGAELKRPGASVKVSCKTSGYSFNNYGINWVRQAPGQGLEWMGWISAYTGNTHYAKNFEGRVTLTTDTSTSTAYMEVRSLRSDDSAVYFCARAMIQGVVTLYLRPGDYWGQGTLVTVSS", "VL": "DIVMTQSPSTLSASVGDRVTITCRASQSIGNWLAWYQQKPGKAPKLLIYKVSTLESGVPSRFSGSGSGTEFTLTINSLQPDDFATYYCQRYTSNSQGFTFGQGTKLEIK"}, "B2": {"name": "monoclonal antibody mAb23 06C2 (antibody, V domains shown)", "VH": "QVQLQESGPGLVKPSETLSLTCTVSGGLIGTGSYYWGWIRQTPGKGMEWIGSISYSGSTYYHPSLKSRVTISDDTSKNQLFLKLRSVTAADTAQYYCARYNWGIRYFDFWGRGTLVTVSS", "VL": "DIQLTQSPLSPPVTLGQPASISCRSSQSLLYTDGFTYLSWYHQRPGQSPRRLIYKISNRDSGVPDRFSGSGSGTDFTLKISRVEAEDVGVYYCMQATHWPLTFGEGTKVEIK"}, "B3": {"name": "monoclonal antibody mAb9 01F3 (antibody, V domains shown)", "VH": "QVQLVQSGAEVKQPGASVKVSCKASGYTFNAYYIHWVRQAPGQGLEWMGWINPNFGGTHYARKFQGRVTMTRDASINTAYMELDRLISDDTAVYYCVRWRAAAVIMDQFYKMDVWGQGTLVTVSS", "VL": "SSELTQPPSASGTPGQRVTISCSGSTSNIGYNPVSWYQQVPGTAPKLLIYSNTERPSGVPDRFSGSKSGTSASLAISGLQSEDEADYYCAAWDDTLNGPVFGGGTKVTVL"}},
  "data": [
    {"molecular_target": "recombinant hemagglutinin H1 from influenza A virus A/NWS/1933 (influenza A virus A/NWS/1933 (printed …, UniProt P03454 18-528))", "units": {"EC50": "nM"}, "values": [
      {"binder": "B1", "EC50": "> 200"},
      {"binder": "B2", "EC50": "> 200"},
      {"binder": "B3", "EC50": "> 200"}
    ]},
    {"molecular_target": "recombinant hemagglutinin H3 from influenza A virus A/Hong Kong/8/1968 (influenza A virus A/Hong Kong/8/1968, UniProt Q91MA7 17-530)", "units": {"EC50": "nM"}, "values": [
      {"binder": "B1", "EC50": 1.32},
      {"binder": "B2", "EC50": 1.84},
      {"binder": "B3", "EC50": 8.42}
    ]}
  ]
}
